Results on 23 sequences are retold here after the Immune Epitope Database (IEDB).

Among the targets are HLA-A*03:01; HLA-A*31:01; HLA-A*11:01; HLA-A*68:01; HLA-A*33:01.
Experiment in all cases: IEDB peptide-MHC binding, purified MHC/competitive/radioactivity; filed as Kd, often an IC50 or EC50 that approximates it; ≥ and ≤ were set here for values at or beyond the usual limits of such assays
The mark [1] stands for this setting: source organism: Lassa virus Josiah.
Setting [2] is: source organism: Vaccinia virus WR.
[3] abbreviates: source organism: SARS coronavirus Tor2.

For the sequence KTWMDIEGR, the Kd was 8460 nM with HLA-A*03:01 (setting [1]); 120 nM with HLA-A*31:01 (setting [1]); 1130 nM in the assay with HLA-A*11:01 (setting [1]); 1820 nM with HLA-A*68:01 (setting [1]); 1710 nM in the assay with HLA-A*33:01 (setting [1]).
Regarding LIWAYLSKK, the Kd in the assay with HLA-A*03:01 (setting [2]) came out at 21.4 nM; in the assay with HLA-A*31:01 (setting [2]), 931 nM; in the assay with HLA-A*11:01 (setting [2]), 101 nM; with HLA-A*68:01 (setting [2]) it was 214 nM; with HLA-A*33:01 (setting [2]), 4940 nM.
On to LLSGHNLAK, for which the Kd was 4.61 nM with HLA-A*03:01 (setting [3]); 6690 nM with HLA-A*31:01 (setting [3]); 90.9 nM in the assay with HLA-A*11:01 (setting [3]); 6580 nM in the assay with HLA-A*68:01 (setting [3]); no less than 77700 nM with HLA-A*33:01 (setting [3]).
Take LTAVCMKCFK: the Kd with HLA-A*03:01 (setting [2]) was 29.8 nM; with HLA-A*31:01 (setting [2]), 38.8 nM; with HLA-A*11:01 (setting [2]), 7.88 nM; with HLA-A*68:01 (setting [2]) it was 3.9 nM; with HLA-A*33:01 (setting [2]), 2050 nM.
On to LTRNPAWRK, for which the Kd in the assay with HLA-A*03:01 (setting [3]) was found to be 222 nM; with HLA-A*31:01 (setting [3]) it was 5020 nM; with HLA-A*11:01 (setting [3]) it was 3950 nM; with HLA-A*68:01 (setting [3]), 1420 nM; with HLA-A*33:01 (setting [3]) it was 1570 nM.
LVCFPSTQR: the Kd in the assay with HLA-A*03:01 (setting [2]) came out at 698 nM; with HLA-A*31:01 (setting [2]), 37.5 nM; with HLA-A*11:01 (setting [2]), 40.6 nM; in the assay with HLA-A*68:01 (setting [2]) it was 10.8 nM; in the assay with HLA-A*33:01 (setting [2]) it was 73 nM.
The like results for MFMLIFNVK were, in that order, 1650 nM, 125 nM, 587 nM, 1340 nM and 4020 nM.
In the same order, the values of MVASDVCKK are 266 nM, 1680 nM, 153 nM, 65.8 nM and 6980 nM.
The like results for MVSVSDFRDY were, in that order, no less than 70100 nM, no less than 70000 nM, 17700 nM, 3960 nM and no less than 70000 nM.
Consider NAKVGDDVK, for which the Kd with HLA-A*03:01 (setting [2]) is no less than 78000 nM; with HLA-A*31:01 (setting [2]), 10100 nM; with HLA-A*11:01 (setting [2]) it was 389 nM; in the assay with HLA-A*68:01 (setting [2]), 478 nM; with HLA-A*33:01 (setting [2]) it was 16900 nM.
The like results for NARMATMLEY were, in that order, 169 nM, 734 nM, 34.3 nM, 455 nM and no less than 69100 nM.
NTMCTEETK: the Kd with HLA-A*03:01 (setting [2]) is no less than 78000 nM; with HLA-A*31:01 (setting [2]), no less than 77900 nM; in the assay with HLA-A*11:01 (setting [2]), 27.9 nM; in the assay with HLA-A*68:01 (setting [2]), 12.5 nM; with HLA-A*33:01 (setting [2]) it was 15700 nM.
The like results for NVPERQLILR were, in that order, 18700 nM, 87.8 nM, 323 nM, 0.0657 nM and 2.86 nM.
As to NVQFVDINR, the Kd was no less than 23000 nM with HLA-A*03:01 (setting [2]); 38.1 nM in the assay with HLA-A*31:01 (setting [2]); 193 nM with HLA-A*11:01 (setting [2]); 0.399 nM with HLA-A*68:01 (setting [2]); 12.7 nM with HLA-A*33:01 (setting [2]).
Turning to PIIVAGFSGK, the dissociation constant Kd was 681 nM with HLA-A*03:01 (setting [2]); no less than 70000 nM in the assay with HLA-A*31:01 (setting [2]); 761 nM with HLA-A*11:01 (setting [2]); 3760 nM with HLA-A*68:01 (setting [2]); no less than 45600 nM in the assay with HLA-A*33:01 (setting [2]).
For the sequence QLQLLMPLK, the dissociation constant Kd in the assay with HLA-A*03:01 (setting [3]) stood at 151 nM; in the assay with HLA-A*31:01 (setting [3]) it was 1480 nM; with HLA-A*11:01 (setting [3]) it was 14.3 nM; with HLA-A*68:01 (setting [3]), 13400 nM; in the assay with HLA-A*33:01 (setting [3]) it was 2350 nM.
On to QLVFNSISAR, for which the Kd is 304 nM with HLA-A*03:01 (setting [2]); 111 nM in the assay with HLA-A*31:01 (setting [2]); 299 nM in the assay with HLA-A*11:01 (setting [2]); 49.2 nM with HLA-A*68:01 (setting [2]); 723 nM with HLA-A*33:01 (setting [2]).
In the same order, the values of QTPTKLMNK are 210 nM, no less than 22700 nM, 306 nM, 178 nM and no less than 77700 nM.
Take RFNVAITRAK: the Kd was found to be 168 nM with HLA-A*03:01 (setting [3]); 64 nM with HLA-A*31:01 (setting [3]); 179 nM with HLA-A*11:01 (setting [3]); 168 nM with HLA-A*68:01 (setting [3]); 7770 nM in the assay with HLA-A*33:01 (setting [3]).
RIENEMKINR: the Kd turned out to be 5560 nM with HLA-A*03:01 (setting [2]); 183 nM in the assay with HLA-A*31:01 (setting [2]); 2570 nM with HLA-A*11:01 (setting [2]); 803 nM with HLA-A*68:01 (setting [2]); 10800 nM with HLA-A*33:01 (setting [2]).
In the case of RLLACLCKHK, the Kd with HLA-A*03:01 (setting [3]) was determined as 0.221 nM; with HLA-A*31:01 (setting [3]), 25.2 nM; in the assay with HLA-A*11:01 (setting [3]), 7.15 nM; with HLA-A*68:01 (setting [3]), 8480 nM; with HLA-A*33:01 (setting [3]), 4450 nM.
Consider RTRDIYISRR, for which the Kd in the assay with HLA-A*03:01 (setting [1]) was determined as 393 nM; in the assay with HLA-A*31:01 (setting [1]) it was 28.1 nM; in the assay with HLA-A*11:01 (setting [1]), 4290 nM; with HLA-A*68:01 (setting [1]), 1700 nM; with HLA-A*33:01 (setting [1]), 725 nM.
In the case of RVMANNVKKK, the dissociation constant Kd with HLA-A*03:01 (setting [2]) is 103 nM; with HLA-A*31:01 (setting [2]) it was 760 nM; with HLA-A*11:01 (setting [2]) it was 96 nM; with HLA-A*68:01 (setting [2]), 539 nM; with HLA-A*33:01 (setting [2]) it was no less than 28200 nM.
